These results are taken from US8541367B2, “Plasma anti-diabetic NUCB2 peptide (pladin) and uses thereof” (Landing Biotech, Inc., priority 2009, dated 2013).

For series [1] the following is noted: blood-to-brain and brain-to-blood, nonsaturable system; cited from earlier work.
Series [2] deals with db/db mice. Put plainly: Blood glucose of db/db mice after injection of test substance. It is filed as in vivo, mouse.
Series [3] concerns the target plasmin (Homo sapiens, UniProt P00747). The experiment in a line: Incubation with plasmin in vitro (proteolysis). It is filed as biochemical. From the text: The recovery of hypothalamic nesfatin-1 in plg^−/−lepr^−/− was consistent to its normalization in food intake and body weight. Fasted mice always had less nesfatin-1 in hypothalamus than their freely feeding counterparties (FIG. 2b). Furthermore, plasminogen deficiency provided a unique approach to study the chronic effect of elevated nesfatin-1 in hyperphagic obese animals, which was impossible for the i.c.v. or i.p. administration due to the short half-time of nesfatin-1. Consequently, agrp and npy were found reduced in plg^−/−lepr^−/−, while pomc was elevated compared with plg^+/+lepr^−/− (FIG. 3), contradicting to the previous report that i.c.v. nesfatin-1 didn't alter the expression of pomc, npy and agrp. Consistent to the present finding, the same group reported the up-regulation of pomc by i.p. nesfatin-1 in NTS recently.
Carefully examining the amino acid sequence of pladin (SEQ ID NO: 23), it has several putative cleavage sites by plasmin (FIG. 11A).

In series [4] the test system is ob/ob mice. Put plainly: Blood lipid analysis in ob/ob mice after i.v. injection. The format is in vivo, mouse. As to conditions: 100 ug i.v., 3 hours after injection. The procedure: One hundred ug Nesfatin-1 was injected into the tail vein of ob/ob mice. Blood samples were taken 3 hours after the injection for lipid analysis.
The conditions of series [5]: in circulation, Pan et al., 2007, Price et al.; cited from earlier work.
In series [6] the test system is db/db mice. The experiment in a line: Food intake and body weight of db/db mice. The format is in vivo, mouse. To be noted: 25 pmol i.c.v., db/db mice.
The nature of series [7]: Clearance and half-life of i.v. peptide in circulation. It is filed as in vivo, mouse. As to conditions: i.v. injection.
In series [8] the test system is Streptozotocin-induced type-1 diabetic C57BL/6J mice. The experiment in a line: Streptozotocin-induced type-1 diabetic mice, blood glucose. It is filed as in vivo, mouse. As to conditions: 100 μg/mouse i.v. alone or with s.c. insulin 2 ng/mouse. The procedure:
Male C57BL/6J mice (10 weeks) were given intraperitoneal injections of Streptozotocin (STZ) in sodium citrate (pH 4.5) on two consecutive days (100 mg/kg/day). Blood glucose was measured by tail vein sampling using the glucose oxidase enzymatic test. Diabetes was defined as a morning blood glucose reading of >16 mM after STZ. When blood glucose levels exceeded 30 mM, diabetic mice were given 16 ng of porcine insulin (Wangbang, Xuzhou, CN) immediately to prevent the blood glucose being dangerous every second day to prevent weight loss while maintaining blood glucose levels within the hyperglycemic range (16-30 mM). Nesfatin-1 (100 μg/mouse) was i.v. injected either alone or combined with s.c. insulin (2 ng/mouse) to STZ-induced type-I diabetic mice.
Male C57BL/6J mice (10 weeks) were intraperitoneally injected with 100 μg/g/day STZ in 100 mmol/L sodium citrate (pH 4.5) on two consecutive days. Blood glucose was measured by tail vein sampling using the glucose oxidase enzymatic test. When the fasting blood glucose reading was over 16 mmol/L after the STZ injection, the mice were considered to be type-1 diabetic. […]

For series [9] the following is noted: i.c.v. or i.p. injection; cited from earlier work.
Series [10] deals with wild-type mice. The experiment in a line: Intravenous glucose tolerance test (IV-GTT / IGTT) in wild-type mice. The format is in vivo, mouse. To be noted: 100 μg, i.v. glucose 1.5 g/kg. The procedure: In the intravenous (i.v.) glucose tolerance test (IV-GTT), mice injected intravenously with 1 mg or 1.5 mg glucose per gram of body weight and placed in clean cages. Blood glucose was measured immediately before and at 5, 10, 20, 30, 60 and 120 minutes after the injection of glucose.

In series [11] the test system is rats. To be noted: cited from earlier work.
The test system of series [12] is rats. As to conditions: injected directly into the brain of rats; cited from earlier work.

Where “and” joins values, the source holds several entries; their conditions need not be identical. Equal values may be shown once. Entries after “also recorded” stand apart in the source; their conditions may differ.

plasmin, sequence (P00747 581-810 limits assumed, species assumed): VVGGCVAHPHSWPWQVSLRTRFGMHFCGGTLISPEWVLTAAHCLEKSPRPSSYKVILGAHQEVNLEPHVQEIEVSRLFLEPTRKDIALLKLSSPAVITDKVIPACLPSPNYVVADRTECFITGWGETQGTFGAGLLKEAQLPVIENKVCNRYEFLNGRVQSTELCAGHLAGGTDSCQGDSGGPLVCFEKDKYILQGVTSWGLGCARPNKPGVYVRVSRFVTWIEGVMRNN
plasmin, sequence (P00747 97-580 partner limits assumed, species assumed): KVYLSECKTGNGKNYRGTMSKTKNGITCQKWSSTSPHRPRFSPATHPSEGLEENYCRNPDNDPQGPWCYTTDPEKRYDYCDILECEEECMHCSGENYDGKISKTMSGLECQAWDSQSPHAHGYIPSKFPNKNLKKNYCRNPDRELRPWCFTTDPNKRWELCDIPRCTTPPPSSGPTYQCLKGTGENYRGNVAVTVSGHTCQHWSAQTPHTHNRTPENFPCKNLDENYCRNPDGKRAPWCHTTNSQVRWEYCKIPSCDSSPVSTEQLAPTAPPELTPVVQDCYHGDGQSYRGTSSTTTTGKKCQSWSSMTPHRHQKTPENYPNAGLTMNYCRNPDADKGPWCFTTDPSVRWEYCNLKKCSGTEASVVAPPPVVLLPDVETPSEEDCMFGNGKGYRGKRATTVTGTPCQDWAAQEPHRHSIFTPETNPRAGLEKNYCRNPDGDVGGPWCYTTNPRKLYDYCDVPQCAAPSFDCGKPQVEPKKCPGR

B1: nesfatin-1: 82 amino-acid fragment of nucb2 (mouse, SEQ ID NO: 18), recombinant, produced in E. coli (protein)
peptide: VPIDVDKTKVHNTEPVENARIEPPDTGLYYDEYLKQVIEVLETDPHFREKLQKADIEEIRSGRLSQELDLVSHKVRTRLDEL
Regarding B1, the “crossing of the blood-brain barrier” value in series [1] is “crosses the Blood Brain Barrier”. The blood glucose result in series [2] (10 nmol i.v., freely fed db/db) was “reduced blood glucose”. The blood glucose result in series [2] (100 μg i.v., freely fed db/db) is given as “significantly reduced blood glucose”. Besides, the blood glucose result in series [2] (i.c.v. injection (25 pmol), db/db) was “had no effect on the high levels of blood glucose; also recorded: little diabetic improvement”. In [2] (i.v. injection, hyperglycemic db/db mice), the “active duration of anti-hyperglycemic effect in vivo” value was above 6 h. For the same molecule, the “anti-hyperglycemic effect (blood glucose)” value in series [2] (peripheral/i.v. injection, db/db, dose not stated) is given as “significantly reduced blood glucose”. Moreover, the “time to complete digestion by plasmin” value in series [3] (in vitro, FIG. 1b) is at most 2 h. In series [3] (incubated with plasmin in vitro), the proteolysis by plasmin result was “rapidly degraded”. Also, in [4], the HDL in blood result was “unaffected”, the LDL in blood entry is given as “significantly reduced”, the “total cholesterol in blood” value is “significantly reduced” and the triglyceride in blood entry was “significantly reduced”. Also, the “half-life of nesfatin-1” value in series [5] was 9 to 10 min and 10 min. Moreover, the food intake result in series [6] is on record as “significantly inhibited food intake”. Further, the “clearance from circulation in plg−/− versus wild-type (plg+/+) mice” value in series [7] is “cleared much slower in plg^−/− than plg^+/+ mice”. Besides, in series [8], the blood glucose entry is “decreased only when nesfatin-1 was injected with s.c. insulin”. Also, the “food intake and body weight” value in series [9] is “inhibits food intake and thereby reduces body weight”. In [10], the “uptake of blood sugar” value is given as “significantly enhanced the uptake of blood sugar”. Moreover, in [11], the neuropsychological effect entry is “increasing anxiety and fear-related behaviors”.

B2: NUCB2: hypothalamus-secreted protein containing 396 amino acids (protein, UniProt P80303 25-420, looked up)
Nucleobindin-2: VPIDIDKTKVQNIHPVESAKIEPPDTGLYYDEYLKQVIDVLETDKHFREKLQKADIEEIKSGRLSKELDLVSHHVRTKLDELKRQEVGRLRMLIKAKLDSLQDIGMDHQALLKQFDHLNHLNPDKFESTDLDMLIKAATSDLEHYDKTRHEEFKKYEMMKEHERREYLKTLNEEKRKEEESKFEEMKKKHENHPKVNHPGSKDQLKEVWEETDGLDPNDFDPKTFFKLHDVNSDGFLDEQELEALFTKELEKVYDPKNEEDDMVEMEEERLRMREHVMNEVDTNKDRLVTLEEFLKATEKKEFLEPDSWETLDQQQFFTEEELKEYENIIALQENELKKKADELQKQKEELQRQHDQLEAQKLEYHQVIQQMEQKKLQQGIPPSGPAGELKFEPHI
As for B2, the “anorexia and body weight” value in series [12] is “promotes anorexia and decreases body weight”.
